The chains are these.
B2: FKBP51 (natural protein, UniProt Q13451 1-457, looked up)
chain: MTTDEGAKNNEESPTATVAEQGEDITSKKDRGVLKIVKRVGNGEETPMIGDKVYVHYKGKLSNGKKFDSSHDRNEPFVFSLGKGQVIKAWDIGVATMKKGEICHLLCKPEYAYGSAGSLPKIPSNATLFFEIELLDFKGEDLFEDGGIIRRTKRKGEGYSNPNEGATVEIHLEGRCGGRMFDCRDVAFTVGEGEDHDIPIGIDKALEKMQREEQCILYLGPRYGFGEAGKPKFGIEPNAELIYEVTLKSFEKAKESWEMDTKEKLEQAAIVKEKGTVYFKGGKYMQAVIQYGKIVSWLEMEYGLSEKESKASESFLLAAFLNLAMCYLKLREYTKAVECCDKALGLDSANEKGLYRRGEAQLLMNEFESAKGDFEKVLEVNPQNKAARLQISMCQKKAKEHNERDRRIYANMFKKFAEQDAKEEANKAMGKKTSEGVTNEKGTDSQAMEEEKPEGHV
notes: FKBP51, 51 kDa, with the FK1, FK2 and TPR domains; all three domains and residues 426-457 are spoken of, which fits the whole 457-residue protein; Used unlabeled or with 13C-methyl (Leu, Val) labels; also called free FKBP51; LV-labeled FKBP51; source: grown in LB or M9 medium, IPTG-induced; purified (His-trap, HRV 3C cut of the His-tag, size exclusion chromatography)

What all share (details): both partners purified
For experiment [1], the target named is T1, 441-residue human 2N4R tau (human, UniProt P10636-8 1-441).
T1 construct: tau, human, 2N4R isoform, printed length 441 residues; Used unlabeled or 15N-labeled; source: grown in LB or M9 medium, IPTG-induced; purified (boiling, ammonium sulfate, Mono S ion exchange, reverse phase HPLC), lyophilized
Kind of experiment: NMR titration; 1H-15N HSQC of 15N-labeled tau (20 or 30 µM); unlabeled p23 or p23 (1-119) added up to ten-fold molar excess; 50 mM NaP, 10 mM NaCl, 1 mM DTT, pH 6.8, 278 K.

The target in experiment [2] is T1, 441-residue human 2N4R tau. Description: cross-linking; p23:FKBP51:tau 1:1:1 (25 µM each), 1 mM DSS, 30 min at 25 °C; SDS-PAGE band above 220 kDa cut out, trypsin digest, mass spectrometry (pLink).
The target in experiment [3] is B2. Description: NMR titration; 1H-15N TROSY HSQC of deuterated 15N-labeled p23 (WT 40 µM, 1-119 25 µM, R88A R93A 40 µM); unlabeled FKBP51 added at equimolar to three-fold or five-fold molar excess; 25 mM HEPES, 10 mM KCl, 5 mM MgCl2, 1 mM DTT, pH 7.2, 303 K.

T1 sequence (P10636 other isoform, or with tags, fused parts or gaps): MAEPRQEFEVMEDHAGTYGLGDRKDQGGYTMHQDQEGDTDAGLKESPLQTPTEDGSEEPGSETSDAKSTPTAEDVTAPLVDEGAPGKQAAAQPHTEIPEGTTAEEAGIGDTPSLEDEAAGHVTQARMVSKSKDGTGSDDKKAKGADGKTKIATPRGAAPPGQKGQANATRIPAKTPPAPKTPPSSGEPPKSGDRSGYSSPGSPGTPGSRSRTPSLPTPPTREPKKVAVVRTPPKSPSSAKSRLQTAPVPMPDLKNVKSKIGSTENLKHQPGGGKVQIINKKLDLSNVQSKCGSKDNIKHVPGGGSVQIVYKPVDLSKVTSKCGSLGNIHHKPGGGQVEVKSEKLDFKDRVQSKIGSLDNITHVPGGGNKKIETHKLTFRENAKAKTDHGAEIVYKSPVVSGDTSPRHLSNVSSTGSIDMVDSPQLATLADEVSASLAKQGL

B1: p23 wild-type (human co-chaperone p23, 160 amino acids) (natural protein, UniProt Q15185 1-160, looked up)
chain: MQPASAKWYDRRDYVFIEFCVEDSKDVNVNFEKSKLTFSCLGGSDNFKHLNEIDLFHCIDPNDSKHKRTDRSILCCLRKGESGQSWPRLTKERAKLNWLSVDFNNWKDWEDDSDEDMSNFDRFSEMMNNMGGDEDVDLPEVDGADDDSQDSDDEKMPDLE
notes: p23, human, 160 amino acids: folded domain (residues 1-110) and disordered C-terminal tail (residues 111-160); Used unlabeled, 15N-labeled or deuterated/15N-labeled; also called p23 WT; full-length p23; source: grown in LB or M9 medium, IPTG-induced; purified (His-trap, thrombin cut of the His-tag, size exclusion chromatography)
As to B1, the binding result in experiment [1] is “binds”. Take B2: the binding result in experiment [2] is given as “binds”.

B3: truncated p23 (1-119) (domain or fragment, human, UniProt Q15185 1-119, looked up)
chain: MQPASAKWYDRRDYVFIEFCVEDSKDVNVNFEKSKLTFSCLGGSDNFKHLNEIDLFHCIDPNDSKHKRTDRSILCCLRKGESGQSWPRLTKERAKLNWLSVDFNNWKDWEDDSDEDMSN
notes: p23, human, residues 1-119; the terminal 41 residues are deleted; Made by site-directed mutagenesis; also called truncated (1–119) mutant p23; C-terminal deletion mutant of p23; source: grown in LB or M9 medium, IPTG-induced; purified (His-trap, thrombin cut of the His-tag, size exclusion chromatography)
On to B3, for which, in experiment [3], the binding result is on record as “binds”.
